B1: full-length FADD: full-length FADD transiently transfected into FADD -/- cells (protein, UniProt Q13158 1-208, looked up)
chain: MDPFLVLLHSVSSSLSSSELTELKFLCLGRVGKRKLERVQSGLDLFSMLLEQNDLEPGHTELLRELLASLRRHDLLRRVDDFEAGAAAGAAPGEEDLCAAFNVICDNVGKDWRRLARQLKVSDTKIDSIEDRYPRNLTERVRESLRIWKNTEKENATVAHLVGALRSCQMNLVADLVQEVQQARDLQNRSGAMSPMSWNSDASTSEAS
modifications: full-length
notes: full-length FADD transiently transfected into FADD -/- cells
B2: RIPn: N-terminal cleavage product of RIP (amino acids 1-324) (protein, UniProt Q13546 1-324, looked up, fragment)
chain: MQPDMSLNVIKMKSSDFLESAELDSGGFGKVSLCFHRTQGLMIMKTVYKGPNCIEHNEALLEEAKMMNRLRHSRVVKLLGVIIEEGKYSLVMEYMEKGNLMHVLKAEMSTPLSVKGRIILEIIEGMCYLHGKGVIHKDLKPENILVDNDFHIKIADLGLASFKMWSKLNNEEHNELREVDGTAKKNGGTLYYMAPEHLNDVNAKPTEKSDVYSFAVVLWAIFANKEPYENAICEQQLIMCIKSGNRPDVDDITEYCPREIISLMKLCWEANPEARPTFPGIEEKFRPFYLSQLEESVEEDVKSLKKEYSNENAVVKRMQSLQLD
B3: p35: known apoptosis inhibitor, transfected plasmid (protein, UniProt P08160 1-299, looked up)
Early 35 kDa protein: MCVIFPVEIDVSQTIIRDCQVDKQTRELVYINKIMNTQLTKPVLMMFNISGPIRSVTRKNNNLRDRIKSKVDEQFDQLERDYSDQMDGFHDSIKYFKDEHYSVSCQNGSVLKSKFAKILKSHDYTDKKSIEAYEKYCLPKLVDERNDYYVAVCVLKPGFENGSNQVLSFEYNPIGNKVIVPFAHEINDTGLYEYDVVAYVDSVQFDGEQFEEFVQSLILPSSFKNSEKVLYYNEASKNKSMIYKALEFTTESSWGKSEKYNWKIFCNGFIYDKKSKVLYVKLHNVTSALNKNVILNTIK
B4: kinase-inactive RIP: kinase inactive version of RIP (K45A mutation), expressed from transfected plasmid (protein, UniProt Q13546 1-671, looked up, variant K45A)
Receptor-interacting …: MQPDMSLNVIKMKSSDFLESAELDSGGFGKVSLCFHRTQGLMIMATVYKGPNCIEHNEALLEEAKMMNRLRHSRVVKLLGVIIEEGKYSLVMEYMEKGNLMHVLKAEMSTPLSVKGRIILEIIEGMCYLHGKGVIHKDLKPENILVDNDFHIKIADLGLASFKMWSKLNNEEHNELREVDGTAKKNGGTLYYMAPEHLNDVNAKPTEKSDVYSFAVVLWAIFANKEPYENAICEQQLIMCIKSGNRPDVDDITEYCPREIISLMKLCWEANPEARPTFPGIEEKFRPFYLSQLEESVEEDVKSLKKEYSNENAVVKRMQSLQLDCVAVPSSRSNSATEQPGSLHSSQGLGMGPVEESWFAPSLEHPQEENEPSLQSKLQDEANYHLYGSRMDRQTKQQPRQNVAYNREEERRRRVSHDPFAQQRPYENFQNTEGKGTAYSSAASHGNAVHQPSGLTSQPQVLYQNNGLYSSHGFGTRPLDPGTAGPRVWYRPIPSHMPSLHNIPVPETNYLGNTPTMPFSSLPPTDESIKYTIYNSTGIQIGAYNYMEIGGTSSSLLDSTNTNFKEEPAAKYQAIFDNTTSLTDKHLDPIRENLGKHWKNCARKLGFTQSQIDEIDHDYERDGLKEKVYQMLQKWVMREGIKGATVGKLAQALHQCSRIDLLSSLIYVSQN
B5: wild-type RIP: wild-type receptor-interacting protein expressed in RIP -/- cells (protein, UniProt Q13546 1-671, looked up)
Receptor-interacting …: MQPDMSLNVIKMKSSDFLESAELDSGGFGKVSLCFHRTQGLMIMKTVYKGPNCIEHNEALLEEAKMMNRLRHSRVVKLLGVIIEEGKYSLVMEYMEKGNLMHVLKAEMSTPLSVKGRIILEIIEGMCYLHGKGVIHKDLKPENILVDNDFHIKIADLGLASFKMWSKLNNEEHNELREVDGTAKKNGGTLYYMAPEHLNDVNAKPTEKSDVYSFAVVLWAIFANKEPYENAICEQQLIMCIKSGNRPDVDDITEYCPREIISLMKLCWEANPEARPTFPGIEEKFRPFYLSQLEESVEEDVKSLKKEYSNENAVVKRMQSLQLDCVAVPSSRSNSATEQPGSLHSSQGLGMGPVEESWFAPSLEHPQEENEPSLQSKLQDEANYHLYGSRMDRQTKQQPRQNVAYNREEERRRRVSHDPFAQQRPYENFQNTEGKGTAYSSAASHGNAVHQPSGLTSQPQVLYQNNGLYSSHGFGTRPLDPGTAGPRVWYRPIPSHMPSLHNIPVPETNYLGNTPTMPFSSLPPTDESIKYTIYNSTGIQIGAYNYMEIGGTSSSLLDSTNTNFKEEPAAKYQAIFDNTTSLTDKHLDPIRENLGKHWKNCARKLGFTQSQIDEIDHDYERDGLKEKVYQMLQKWVMREGIKGATVGKLAQALHQCSRIDLLSSLIYVSQN
B6: RIP-D324A: non-cleavable mutant of RIP (protein, UniProt Q13546 1-671, looked up, variant D324A)
Receptor-interacting …: MQPDMSLNVIKMKSSDFLESAELDSGGFGKVSLCFHRTQGLMIMKTVYKGPNCIEHNEALLEEAKMMNRLRHSRVVKLLGVIIEEGKYSLVMEYMEKGNLMHVLKAEMSTPLSVKGRIILEIIEGMCYLHGKGVIHKDLKPENILVDNDFHIKIADLGLASFKMWSKLNNEEHNELREVDGTAKKNGGTLYYMAPEHLNDVNAKPTEKSDVYSFAVVLWAIFANKEPYENAICEQQLIMCIKSGNRPDVDDITEYCPREIISLMKLCWEANPEARPTFPGIEEKFRPFYLSQLEESVEEDVKSLKKEYSNENAVVKRMQSLQLACVAVPSSRSNSATEQPGSLHSSQGLGMGPVEESWFAPSLEHPQEENEPSLQSKLQDEANYHLYGSRMDRQTKQQPRQNVAYNREEERRRRVSHDPFAQQRPYENFQNTEGKGTAYSSAASHGNAVHQPSGLTSQPQVLYQNNGLYSSHGFGTRPLDPGTAGPRVWYRPIPSHMPSLHNIPVPETNYLGNTPTMPFSSLPPTDESIKYTIYNSTGIQIGAYNYMEIGGTSSSLLDSTNTNFKEEPAAKYQAIFDNTTSLTDKHLDPIRENLGKHWKNCARKLGFTQSQIDEIDHDYERDGLKEKVYQMLQKWVMREGIKGATVGKLAQALHQCSRIDLLSSLIYVSQN
B7: kinase-inactive form of apoptosis signaling kinase ASK1: kinase inactive version of ASK1, expressed from transfected plasmid (protein, UniProt Q99683 1-1374, looked up, variant K709R)
Mitogen-activated protein …: MSTEADEGITFSVPPFAPSGFCTIPEGGICRRGGAAAVGEGEEHQLPPPPPGSFWNVESAAAPGIGCPAATSSSSATRGRGSSVGGGSRRTTVAYVINEASQGQLVVAESEALQSLREACETVGATLETLHFGKLDFGETTVLDRFYNADIAVVEMSDAFRQPSLFYHLGVRESFSMANNIILYCDTNSDSLQSLKEIICQKNTMCTGNYTFVPYMITPHNKVYCCDSSFMKGLTELMQPNFELLLGPICLPLVDRFIQLLKVAQASSSQYFRESILNDIRKARNLYTGKELAAELARIRQRVDNIEVLTADIVINLLLSYRDIQDYDSIVKLVETLEKLPTFDLASHHHVKFHYAFALNRRNLPGDRAKALDIMIPMVQSEGQVASDMYCLVGRIYKDMFLDSNFTDTESRDHGASWFKKAFESEPTLQSGINYAVLLLAAGHQFESSFELRKVGVKLSSLLGKKGNLEKLQSYWEVGFFLGASVLANDHMRVIQASEKLFKLKTPAWYLKSIVETILIYKHFVKLTTEQPVAKQELVDFWMDFLVEATKTDVTVVRFPVLILEPTKIYQPSYLSINNEVEEKTISIWHVLPDDKKGIHEWNFSASSVRGVSISKFEERCCFLYVLHNSDDFQIYFCTELHCKKFFEMVNTITEEKGRSTEEGDCESDLLEYDYEYDENGDRVVLGKGTYGIVYAGRDLSNQVRIAIREIPERDSRYSQPLHEEIALHKHLKHKNIVQYLGSFSENGFIKIFMEQVPGGSLSALLRSKWGPLKDNEQTIGFYTKQILEGLKYLHDNQIVHRDIKGDNVLINTYSGVLKISDFGTSKRLAGINPCTETFTGTLQYMAPEIIDKGPRGYGKAADIWSLGCTIIEMATGKPPFYELGEPQAAMFKVGMFKVHPEIPESMSAEAKAFILKCFEPDPDKRACANDLLVDEFLKVSSKKKKTQPKLSALSAGSNEYLRSISLPVPVLVEDTSSSSEYGSVSPDTELKVDPFSFKTRAKSCGERDVKGIRTLFLGIPDENFEDHSAPPSPEEKDSGFFMLRKDSERRATLHRILTEDQDKIVRNLMESLAQGAEEPKLKWEHITTLIASLREFVRSTDRKIIATTLSKLKLELDFDSHGISQVQVVLFGFQDAVNKVLRNHNIKPHWMFALDSIIRKAVQTAITILVPELRPHFSLASESDTADQEDLDVEDDHEEQPSNQTVRRPQAVIEDAVATSGVSTLSSTVSHDSQSAHRSLNVQLGRMKIETNRLLEELVRKEKELQALLHRAIEEKDQEIKHLKLKSQPIEIPELPVFHLNSSGTNTEDSELTDWLRVNGADEDTISRFLAEDYTLLDVLYYVTRDDLKCLRLRGGMLCTLWKAIIDFRNKQT
B8: RIPc: C-terminal fragment of RIP (amino acids 325-671) (protein, UniProt Q13546 325-671, looked up, fragment)
chain: CVAVPSSRSNSATEQPGSLHSSQGLGMGPVEESWFAPSLEHPQEENEPSLQSKLQDEANYHLYGSRMDRQTKQQPRQNVAYNREEERRRRVSHDPFAQQRPYENFQNTEGKGTAYSSAASHGNAVHQPSGLTSQPQVLYQNNGLYSSHGFGTRPLDPGTAGPRVWYRPIPSHMPSLHNIPVPETNYLGNTPTMPFSSLPPTDESIKYTIYNSTGIQIGAYNYMEIGGTSSSLLDSTNTNFKEEPAAKYQAIFDNTTSLTDKHLDPIRENLGKHWKNCARKLGFTQSQIDEIDHDYERDGLKEKVYQMLQKWVMREGIKGATVGKLAQALHQCSRIDLLSSLIYVSQN

Legend:
FADD -/- I42 cells = assay: TNF cytotoxic assay (cell loss by PI exclusion on FACS), FADD -/- I42 cells; format: cell-based; details: FADD -/- cells (I42) transiently transfected; TNF 12 hours; GFP+ cells
Description: Cells were stimulated with, TNF or anti-Fas antibody (CH11) for 12 hours and cell loss was analyzed on the GFP+ cells by PI exclusion on FACS.
FIG. 8F is a bar graph depicting the results of experiments in which FADD -/- I42 cells and caspase-8 -/- J3.2 cells (both are TNFR-2+) were stimulated with TNF in the presence or absence of zVAD-fmk for 16 hours.

[1] = test system: TNFR-2+ RIP -/- Jurkat cells (R1.1); assay: TNF cytotoxic assay (cell loss by PI exclusion on FACS), TNFR-2+ RIP -/- cells; format: cell-based; details: TNFR-2+ RIP -/- cells reconstituted with RIP mutants, stimulated with TNF
Text: The results are representative of three experiments.

caspase-8 -/- J3.2 cells = assay: TNF cytotoxic assay (cell loss by PI exclusion on FACS), caspase-8 -/- J3.2 cells; details: for TNF-induced programmed necrosis, transfected kinase-inactive constructs: caspase-8 -/- J3.2 cells co-transfected with pEGFP-N1, 10 ng/ml rhTNFα, 16 hours, GFP positive cells

| Molecule | restoration of response to TNF (TNF killing) by transfected RIP constructs [1] | also measured |
| --- | --- | --- |
| B1 |  | TNF-induced programmed necrosis after reconstitution of FADD (FADD -/- I42 cells): suppression |
| B2 | failed to restore |  |
| B3 |  | TNF-induced programmed necrosis, transfected apoptosis inhibitors (caspase-8 -/- J3.2 cells; caspase 8 -/- J3.2 cells transfected with plasmids, 12 hours stimulation with TNF): failed to confer protection |
| B4 | restored | TNF-induced programmed necrosis, transfected kinase-inactive constructs (caspase-8 -/- J3.2 cells): strongly suppressed |
| B5 | potently restored |  |
| B6 | potently restored |  |
| B7 |  | TNF-induced programmed necrosis, transfected kinase-inactive constructs (caspase-8 -/- J3.2 cells): not |
| B8 | restored |  |

— patent US20080019909A1, “Modulation of Programmed Necrosis” (priority 2003, published 2008)
